From the Human Domainome abundance scans (Beltran et al. 2025)
± gives the uncertainty stated by the source.

B1: Transcription factor SOX-4, residues 60 to 127; numbered along this chain, Q06945 (parent)
chain: KRPMNAFMVWSQIERRKIMEQSPDMHNAEISKRLGKRWKLLKDSDKIPFIREAERLRLKHMADYPDYK

Variants of: B1
Test: abundance fitness (aPCA) (normalised: wild type 0, dead -1); higher = more abundant; growth selection in yeast, the domain comes from the species named
Details: Homo sapiens

Row | Variant | abundance fitness
1 | D24A | -0.239 ± 0.06
2 | D24R | -0.307 ± 0.044
3 | D24L | -0.251 ± 0.039
4 | D24E | -0.052 ± 0.051
5 | D24K | -0.141 ± 0.064
6 | Q21C | -0.581 ± 0.17
7 | Q21T | -0.085 ± 0.075
8 | Q21H | -0.282 ± 0.11
9 | Q21K | -0.204 ± 0.088
10 | Q21P | -0.874 ± 0.15
11 | Q21S | -0.163 ± 0.064
12 | Q21W | -0.884 ± 0.17
13 | Q21Y | -0.63 ± 0.26
14 | Q12D | 0.179 ± 0.12
15 | Q12C | -0.07 ± 0.06
16 | Q12A | -0.138 ± 0.1
17 | Q12F | -0.494 ± 0.1
18 | Q12Y | -0.343 ± 0.17
19 | R57V | -0.413 ± 0.072
20 | R57L | -0.328 ± 0.063
21 | R57K | -0.375 ± 0.16
22 | R57Q | -0.206 ± 0.1
23 | R57E | -0.111 ± 0.066
24 | R57D | -0.372 ± 0.11

Row | Variant | abundance fitness
25 | A62P | -0.157 ± 0.067
26 | A62R | -0.033 ± 0.041
27 | A62W | -0.249 ± 0.054
28 | A62C | -0.15 ± 0.049
29 | A62M | -0.304 ± 0.075
30 | K46I | -0.553 ± 0.072
31 | K46N | -1.08 ± 0.11
32 | K46P | -0.933 ± 0.2
33 | R16P | -0.234 ± 0.066
34 | R16A | -0.011 ± 0.048
35 | R16T | -0.077 ± 0.049
36 | R16S | -0.174 ± 0.041
37 | R15Y | -0.375 ± 0.066
38 | R15I | -0.25 ± 0.057
39 | R15H | -0.428 ± 0.14
40 | R15F | -0.464 ± 0.045
41 | Y64Q | -0.112 ± 0.13
42 | Y64W | -0.25 ± 0.077
43 | Y64F | -0.156 ± 0.094
44 | Y64G | -0.008 ± 0.073
45 | Y64K | 0.128 ± 0.095
46 | Y64A | -0.094 ± 0.093
47 | Y64L | 0.009 ± 0.046
48 | R37T | -0.05 ± 0.089

Row | Variant | abundance fitness
49 | R37K | 0.052 ± 0.078
50 | R37I | -0.371 ± 0.21
51 | R37H | -0.313 ± 0.25
52 | R37F | -0.714 ± 0.21
53 | K42H | -0.487 ± 0.28
54 | K42D | -0.274 ± 0.16
55 | K42G | -0.264 ± 0.075
56 | N5L | -0.589 ± 0.095
57 | N5S | 0.016 ± 0.065
58 | N5Y | -0.472 ± 0.18
59 | N5I | -0.665 ± 0.23
60 | N5M | -0.842 ± 0.13
61 | L41G | -0.941 ± 0.16
62 | L41M | 0.071 ± 0.065
63 | L41W | -0.946 ± 0.14
64 | L41Q | -0.889 ± 0.19
65 | L41V | -0.529 ± 0.067
66 | E54Y | -0.652 ± 0.058
67 | E54H | -0.435 ± 0.045
68 | E54A | -0.29 ± 0.062
69 | E54P | -0.802 ± 0.11
70 | E54C | -0.425 ± 0.049
71 | E54D | -0.264 ± 0.046
72 | I50F | 0.003 ± 0.12

Row | Variant | abundance fitness
73 | I50A | -0.186 ± 0.1
74 | I50R | -0.2 ± 0.1
75 | I50K | -0.362 ± 0.14
76 | I50S | -0.322 ± 0.086
77 | I50Q | -0.021 ± 0.1
78 | K17Y | -0.421 ± 0.095
79 | K17G | -0.783 ± 0.075
80 | K17V | -0.318 ± 0.1
81 | K17C | -0.857 ± 0.18
82 | K17L | -0.215 ± 0.052
83 | K17P | -0.987 ± 0.23
84 | L58N | -0.028 ± 0.046
85 | L58K | -0.07 ± 0.046
86 | L58F | -0.084 ± 0.039
87 | L58I | -0.132 ± 0.047
88 | L58T | -0.087 ± 0.058
89 | L58W | -0.247 ± 0.055
90 | L58S | -0.011 ± 0.034
91 | S11R | -0.63 ± 0.058
92 | S11M | -0.394 ± 0.079
93 | S11D | -0.758 ± 0.085
94 | S11L | -0.432 ± 0.045
95 | S11C | -0.206 ± 0.047
96 | S11W | -0.608 ± 0.089

Row | Variant | abundance fitness
97 | M8A | 0.023 ± 0.044
98 | M8F | -0.133 ± 0.041
99 | M8V | -0.178 ± 0.048
100 | M8C | -0.278 ± 0.061
101 | M8T | -0.068 ± 0.058
102 | M8N | -0.242 ± 0.04
103 | M8E | 0.232 ± 0.073
104 | M8L | -0.084 ± 0.043
105 | M8S | -0.072 ± 0.037
106 | N27L | -0.162 ± 0.038
107 | N27P | 0.184 ± 0.076
108 | N27V | -0.07 ± 0.041
109 | N27A | 0.004 ± 0.055
110 | N27G | -0.103 ± 0.033
111 | N27R | -0.112 ± 0.044
112 | N27K | -0.03 ± 0.052
113 | K39F | -0.481 ± 0.062
114 | K39G | -0.098 ± 0.04
115 | K39W | -0.758 ± 0.091
116 | K39E | 0.057 ± 0.08
117 | K39V | -0.306 ± 0.039
118 | W10M | -1.08 ± 0.34
119 | S44C | -0.472 ± 0.13
120 | S44P | -0.465 ± 0.13

Row | Variant | abundance fitness
121 | S44Y | -0.687 ± 0.19
122 | R33W | -0.089 ± 0.066
123 | R33K | 0.048 ± 0.13
124 | R33L | 0.192 ± 0.059
125 | R33I | -0.051 ± 0.2
126 | R33T | 0.085 ± 0.097
127 | R33D | 0.483 ± 0.36
128 | M61H | 0.098 ± 0.061
129 | M61T | -0.025 ± 0.093
130 | M61I | -0.238 ± 0.072
131 | M61V | -0.073 ± 0.072
132 | M61W | -0.224 ± 0.083
133 | E29R | -0.883 ± 0.1
134 | E29L | -0.518 ± 0.067
135 | E29M | -0.225 ± 0.12
136 | E29P | -0.162 ± 0.15
137 | E29W | -0.84 ± 0.18
138 | E29H | -0.879 ± 0.46
139 | E29I | -0.916 ± 0.19
140 | I47Y | -0.224 ± 0.054
141 | I47D | -0.128 ± 0.054
142 | I47T | -0.178 ± 0.046
143 | I47W | -0.251 ± 0.045
144 | I47P | -0.796 ± 0.4

Row | Variant | abundance fitness
145 | H60M | -0.092 ± 0.073
146 | H60N | -0.076 ± 0.24
147 | H60Q | -0.066 ± 0.072
148 | H60V | -0.173 ± 0.053
149 | H60T | -0.05 ± 0.069
150 | H60L | -0.186 ± 0.052
151 | P48R | -0.4 ± 0.055
152 | P48Q | -0.286 ± 0.2
153 | P48E | -0.189 ± 0.049
154 | P48H | -0.31 ± 0.048
155 | P48D | -0.469 ± 0.077
156 | P48C | -0.504 ± 0.084
157 | P48V | -0.315 ± 0.044
158 | P48S | -0.453 ± 0.057
159 | W38K | -0.708 ± 0.09
160 | W38C | -0.849 ± 0.076
161 | M4Y | -0.236 ± 0.076
162 | M4V | -0.068 ± 0.044
163 | M4P | 0.002 ± 0.073
164 | M4D | -0.28 ± 0.071
165 | M4H | -0.589 ± 0.14
166 | M4A | -0.227 ± 0.075
167 | M4S | -0.492 ± 0.085
